{
  "source": "the Human Domainome abundance scans (Beltran et al. 2025)",
  "parents": {"B1": {"name": "Protein C-ets-1, residues 55 to 135; numbered along this chain, P14921 (parent)", "chain": "GFTKEQQRLGIPKDPRQWTETHVRDWVMWAVNEFSLKGVDFQKFCMNGAALCALGKDCFLELAPDFVGDILWEHLEILQKE"}},
  "note": "± gives the uncertainty stated by the source.",
  "data": [
    {"variants_of": "B1", "experiment": "abundance fitness (aPCA) (normalised: wild type 0, dead -1); higher = more abundant; growth selection in yeast, the domain comes from the species named", "settings": "Homo sapiens", "values": [
      {"variant": "GFTKEQQRLGIPKDPRQWTETHVADWVMWAVNEFSLKGVDFQKFCMNGAALCALGKDCFLELAPDFVGDILWEHLEILQKE", "abundance fitness": "-0.087 ± 0.046"},
      {"variant": "GFTKEQQRLGIPKDPRQWTETHVKDWVMWAVNEFSLKGVDFQKFCMNGAALCALGKDCFLELAPDFVGDILWEHLEILQKE", "abundance fitness": "0.096 ± 0.075"},
      {"variant": "GFTKEQQRLGIPKDPRQWTETHVHDWVMWAVNEFSLKGVDFQKFCMNGAALCALGKDCFLELAPDFVGDILWEHLEILQKE", "abundance fitness": "0.051 ± 0.087"},
      {"variant": "GFTKEQQRLGIPKDPRQWTETHVCDWVMWAVNEFSLKGVDFQKFCMNGAALCALGKDCFLELAPDFVGDILWEHLEILQKE", "abundance fitness": "-0.111 ± 0.068"},
      {"variant": "GFTKEQQRLGIPKDPRQWTETHVMDWVMWAVNEFSLKGVDFQKFCMNGAALCALGKDCFLELAPDFVGDILWEHLEILQKE", "abundance fitness": "0.023 ± 0.062"},
      {"variant": "GFTKEQQRLGIPKDPRQWTETHVWDWVMWAVNEFSLKGVDFQKFCMNGAALCALGKDCFLELAPDFVGDILWEHLEILQKE", "abundance fitness": "-0.3 ± 0.047"},
      {"variant": "GFTKEQQRLGIPKDPRQWTETHVVDWVMWAVNEFSLKGVDFQKFCMNGAALCALGKDCFLELAPDFVGDILWEHLEILQKE", "abundance fitness": "-0.059 ± 0.043"},
      {"variant": "GFTKEQQRLGIPKDPRQWTETHVNDWVMWAVNEFSLKGVDFQKFCMNGAALCALGKDCFLELAPDFVGDILWEHLEILQKE", "abundance fitness": "-0.062 ± 0.11"},
      {"variant": "GFTKEQQRLGIPKDPRQWTETHVYDWVMWAVNEFSLKGVDFQKFCMNGAALCALGKDCFLELAPDFVGDILWEHLEILQKE", "abundance fitness": "-0.152 ± 0.088"},
      {"variant": "GFTKEQQRLGIPKDPRQWTETHVSDWVMWAVNEFSLKGVDFQKFCMNGAALCALGKDCFLELAPDFVGDILWEHLEILQKE", "abundance fitness": "-0.152 ± 0.035"},
      {"variant": "GFTKEQQRLGIPKDPRQWTETHVLDWVMWAVNEFSLKGVDFQKFCMNGAALCALGKDCFLELAPDFVGDILWEHLEILQKE", "abundance fitness": "-0.05 ± 0.034"},
      {"variant": "GFTKEQQRLGIPKDPRQWTETHVTDWVMWAVNEFSLKGVDFQKFCMNGAALCALGKDCFLELAPDFVGDILWEHLEILQKE", "abundance fitness": "-0.087 ± 0.052"},
      {"variant": "GFTKEQQRLGIPKDPRQWTETHVEDWVMWAVNEFSLKGVDFQKFCMNGAALCALGKDCFLELAPDFVGDILWEHLEILQKE", "abundance fitness": "-0.275 ± 0.05"},
      {"variant": "GFTKEQQRLGIPKDPRQWTETHVQDWVMWAVNEFSLKGVDFQKFCMNGAALCALGKDCFLELAPDFVGDILWEHLEILQKE", "abundance fitness": "-0.039 ± 0.038"},
      {"variant": "GFTKEQQRLGIPKDPRQWTETHVFDWVMWAVNEFSLKGVDFQKFCMNGAALCALGKDCFLELAPDFVGDILWEHLEILQKE", "abundance fitness": "-0.287 ± 0.088"},
      {"variant": "GFTKEQQRLGIPKDPRQWTETHVRDAVMWAVNEFSLKGVDFQKFCMNGAALCALGKDCFLELAPDFVGDILWEHLEILQKE", "abundance fitness": "-0.845 ± 0.041"},
      {"variant": "GFTKEQQRLGIPKDPRQWTETHVRHWVMWAVNEFSLKGVDFQKFCMNGAALCALGKDCFLELAPDFVGDILWEHLEILQKE", "abundance fitness": "0.041 ± 0.052"},
      {"variant": "GFTKEQQRLGIPKDPRQWTETHVRVWVMWAVNEFSLKGVDFQKFCMNGAALCALGKDCFLELAPDFVGDILWEHLEILQKE", "abundance fitness": "-0.061 ± 0.026"},
      {"variant": "GFTKEQQRLGIPKDPRQWTETHVRLWVMWAVNEFSLKGVDFQKFCMNGAALCALGKDCFLELAPDFVGDILWEHLEILQKE", "abundance fitness": "0.016 ± 0.022"},
      {"variant": "GFTKEQQRLGIPKDPRQWTETHVRTWVMWAVNEFSLKGVDFQKFCMNGAALCALGKDCFLELAPDFVGDILWEHLEILQKE", "abundance fitness": "-0.038 ± 0.033"},
      {"variant": "GFTKEQQRLGIPKDPRQWTETHVRPWVMWAVNEFSLKGVDFQKFCMNGAALCALGKDCFLELAPDFVGDILWEHLEILQKE", "abundance fitness": "-0.973 ± 0.08"},
      {"variant": "GFTKEQQRLGIPKDPRQWTETHVRGWVMWAVNEFSLKGVDFQKFCMNGAALCALGKDCFLELAPDFVGDILWEHLEILQKE", "abundance fitness": "-0.038 ± 0.027"},
      {"variant": "GFTKEQQRLGIPKDPRQWTETHVRRWVMWAVNEFSLKGVDFQKFCMNGAALCALGKDCFLELAPDFVGDILWEHLEILQKE", "abundance fitness": "-0.023 ± 0.027"},
      {"variant": "GFTKEQQRLGIPKDPRQWTETHVRIWVMWAVNEFSLKGVDFQKFCMNGAALCALGKDCFLELAPDFVGDILWEHLEILQKE", "abundance fitness": "-0.033 ± 0.053"},
      {"variant": "GFTKEQQRLGIPKDPRQWTETHVRWWVMWAVNEFSLKGVDFQKFCMNGAALCALGKDCFLELAPDFVGDILWEHLEILQKE", "abundance fitness": "-0.05 ± 0.045"},
      {"variant": "GFTKEQQRLGIPKDPRQWTETHVRQWVMWAVNEFSLKGVDFQKFCMNGAALCALGKDCFLELAPDFVGDILWEHLEILQKE", "abundance fitness": "-0.003 ± 0.048"},
      {"variant": "GFTKEQQRLGIPKDPRQWTETHVRCWVMWAVNEFSLKGVDFQKFCMNGAALCALGKDCFLELAPDFVGDILWEHLEILQKE", "abundance fitness": "-0.01 ± 0.048"},
      {"variant": "GFTKEQQRLGIPKDPRQWTETHVREWVMWAVNEFSLKGVDFQKFCMNGAALCALGKDCFLELAPDFVGDILWEHLEILQKE", "abundance fitness": "0.06 ± 0.039"},
      {"variant": "GFTKEQQRLGIPKDPRQWTETHVRAWVMWAVNEFSLKGVDFQKFCMNGAALCALGKDCFLELAPDFVGDILWEHLEILQKE", "abundance fitness": "0.014 ± 0.027"},
      {"variant": "GFTKEQQRLGIPKDPRQWTETHVRMWVMWAVNEFSLKGVDFQKFCMNGAALCALGKDCFLELAPDFVGDILWEHLEILQKE", "abundance fitness": "-0.061 ± 0.034"},
      {"variant": "GFTKEQQRLGIPKDPRQWTETHVRKWVMWAVNEFSLKGVDFQKFCMNGAALCALGKDCFLELAPDFVGDILWEHLEILQKE", "abundance fitness": "-0.005 ± 0.049"},
      {"variant": "GFTKEQQRLGIPKDPRQWTETHVRFWVMWAVNEFSLKGVDFQKFCMNGAALCALGKDCFLELAPDFVGDILWEHLEILQKE", "abundance fitness": "-0.124 ± 0.055"},
      {"variant": "GFTKEQQRLGIPKDPRQWTETHVRYWVMWAVNEFSLKGVDFQKFCMNGAALCALGKDCFLELAPDFVGDILWEHLEILQKE", "abundance fitness": "-0.027 ± 0.048"},
      {"variant": "GFTKEQQRLGIPKDPRQWTETHVRSWVMWAVNEFSLKGVDFQKFCMNGAALCALGKDCFLELAPDFVGDILWEHLEILQKE", "abundance fitness": "-0.008 ± 0.028"}
    ]}
  ]
}
